Biological target: HIV-1 Rev (HIV-1, UniProt P04618)
Sequence (P04618 whole entry): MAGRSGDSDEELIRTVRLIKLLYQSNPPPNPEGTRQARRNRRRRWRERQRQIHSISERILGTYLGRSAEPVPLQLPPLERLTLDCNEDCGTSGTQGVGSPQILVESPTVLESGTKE

B1: anti-Rev Fab (chimeric rabbit/human) (Fab, V domains shown)
VH: QEQLVESGGRLVTPGTALTLTCKVSGFSLSGFWLNWVRQAPGKGLEWVGAIYRGSGSEWYASWAKGRFTISDTSTTVTLKLTSPTTEDTATYFCAADTTDNGYFTIWGPGTLVTVSS
VL: ELVMTQTPSSVSEPVGGTVTIKCQASQSISSWLSWYQQKPGQPPKLLIYDASNLASGVPSRFMGSGSGTEYTLTISGVQREDAATYYCLGGYPAASYRTAFGGGTELEII
Kd: < 0.1 nM | stoichiometry N: 1

— paper PMC4175418 (Methods in molecular biology (Clifton, N.J.), 2014)
